From the supplement of paper PMC9170038
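Also: bound reporter read as fluorescence of individual clusters on recovered sequencing chips by microscopy, with normalized cluster intensities fitted with a binding model.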

The sequences below were run on K4 kissing-loop RNA reporter (assay: apparent KD of K4 kissing-loop reporter; higher = weaker reporter binding). Conditions: Eterna round: R107; input ligand: theophylline 20 uM.
Method: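 RNA-MaP round R107: designed RNA switches with theophylline, tryptophan, arginine or FMN aptamers are transcribed on-chip within common flanks. They are titrated with a labelled K4 kissing-loop RNA reporter in RNA-MaP buffer (100 mM Tris pH 7.5, 80 mM KCl, 4 mM MgCl2), without ligand or with the indicated ligand. Median apparent KD per design.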
With “UGGACCAAGGAGUGAUGUUCCAUAUGUGAUACCAGCCACGAAAGUGGCCCUUGGCAGCACUGCCAGGACGAAAACGUCCGGUCCU [#SwitchBubble 13 #StaticStem #K4Early]” the “apparent KD of K4 kissing-loop reporter” value was 477 nM.
“GUCCCAGUGAUGUUGGUAGGCGAGCGGGAUACCAGCGAAGACUCACGCCCUUGGCAGCCCACAUAUCCCACGUAGGGAUUAGCUC [Same State - Theophylline A (Freestyle 20)]” was tested, and the “apparent KD of K4 kissing-loop reporter” value was 357 nM.
For “UGACUGGACUGAAGGAGCGAGCGAGACAAAGUCUCGGAAAUUCAGUGAUGUUGAUAUAUAACUCAGGUAGGUCGCAGUCUAGUCU [ArgBS 6 #SwitchBubble #StaticStem]”, the “apparent KD of K4 kissing-loop reporter” value was 363 nM.
In the case of “UAGCGGUGGAGGCCACCGCUAUUCUGAGAAGGAGCGCAGAUGACUGCAGGUAGGUCGCUUAGAGCUUGCAGUGAUGUUGCAAGUU [Araatlaqu]”, the “apparent KD of K4 kissing-loop reporter” value is reported as 223 nM.
For “GCAUGACGGUAAGGAUAUAGAUAAUCCUUAUAUACGUCGAGUGAUGUUCGAUGUGCCAAGGCACAUCUAGAAGGUACUGUUAGGU [Same State FMN B GF 18]”, the “apparent KD of K4 kissing-loop reporter” value was 725 nM.
In the case of “ACGUAUAUCAGAGGAUAUCGUAUUAAUAUUUUAUCUAUCUAUAUAUGCAGUGAUGUUGCAAUAAUUCGAGAAGGCUGAUUUACGA [JR_ExcFMNB_Sub010]”, the “apparent KD of K4 kissing-loop reporter” value is reported as 133 nM.
“UCUGCAAAGUCGGCCGCCACUCCGGGCCCUAUAAAUGGGCGCAGUGAUGUUGCGGCUAGGCCUCUGAGGACCGGGACUUCGUAGA [Somale]” was tested, and the “apparent KD of K4 kissing-loop reporter” value was 166 nM.
With “UGACUACAUCCUAGUGAUGUUUAGGAUAUGUAGGAUAUGCUGAUAAGCAGAAGGACAGAAGGAAGUGAUGUUCUUAAAGUAGUCU [FmnAX 29 #DoubleAptamer #Double K4 #SwitchBubble #StaticStem]” the “apparent KD of K4 kissing-loop reporter” value was 760 nM.

Same assay, conditions: Eterna round: R107; input ligand: tryptophan 2.4 mM
With “CUAGAAGUGAUGUUUCAUAGUAAAUCUGAUACCAGCAUUAAACCCUGCCCUUGGCAGCAGAAUGGGCUGAUAGACUCCUGCAGCU [theeternabot_sameState_KL_Theo_A_36]” the “apparent KD of K4 kissing-loop reporter” value was 182 nM.
“AGUGAUAUAUGAGGAUAUGGGUUGGUUAAUGAGUUAGUUUUAGUGUUGUUUGGUUAGUGAUGUUAUUUAGAAGGCGUGAGUGAUG [sffdsmullin]” was tested, and the “apparent KD of K4 kissing-loop reporter” value was 71.8 nM.
In the case of “GGAUAACAGGCAGGAUAUGCUUAGUAGUAAGGCCAUAUAUACGUAUAGAGUGAUGUUUUGUACAAGGCAGAAGGGCUAAAUCCAU [FMN B Excl V2 (+4G)]”, the “apparent KD of K4 kissing-loop reporter” value is reported as 254 nM.
With “AAACAUUGGUCUGAUACCAGCUUGAUCGGUAAACGAUCUACUGGAGUGAUGUUCCUAAAUAGCCCUUGGCAGCAGACCGAUGAAA [MAT - Same State Theophlline B - Mod of Eli - D6]” the “apparent KD of K4 kissing-loop reporter” value was 181 nM.
For “CUGUUUUAGUCGGCCGCCACUGCAAGUGAUGUUUGGAGUAUUAUGCCGUUUCUGUCCAUUGAACCCAGGACCGGGACCGGAUCGU [theeternabot_exclusion_KL_Trp_B_8]”, the “apparent KD of K4 kissing-loop reporter” value was 189 nM.
In the case of “UGAUACCAGACGGCCGCCACUCCCGUAAGUCAAAGACUUACCAAGAGAAUCGUCCAGUGAUGUUGGAGGACCGGGUCUGGUAUCU [FiskerMod 8 - Jieux - Exclusion - Tryptophan B]”, the “apparent KD of K4 kissing-loop reporter” value is reported as 682 nM.
“AACAGCAAUGCGGCCGCCACUUCGAGGUCAGUGAUGUUGACGGGAUUAAAUAAAGAUCCCAAGAGGAGGACCGGGCAGUGCUGUU [whbob_SS_Tryp_B_t26]” was tested, and the “apparent KD of K4 kissing-loop reporter” value was 192 nM.
In the case of “CACGAUGAAUUCUCUAGGAGUGAUGUUUUUCGAGGACCGGUACGGCCGCCACUCGGACGACGAGCGUGGUAGCGGCGUGAAGACU [zamullin]”, the “apparent KD of K4 kissing-loop reporter” value is reported as 452 nM.
“GGUUCCUCAGUGAUGUUGAGGUGACCUCGGCAGGAUAUAGGCAUUACUAGAAGGGCCAAAAGAACCCUGUCCAGCGACACAGGGA [Zalatiat]” was tested, and the “apparent KD of K4 kissing-loop reporter” value was 232 nM.
In the case of “GAGAUAGCGACGGCCGCCACUAGUGAUGUUAGUGCGGGUAGAUAGAUACUUGAACAGAAAUGACGUAGGACCGGGUCAGAUAGAG [#02 K4 Tryptophan B Exclusion]”, the “apparent KD of K4 kissing-loop reporter” value is reported as 149 nM.
In the case of “CACCGGACGAAAGAUACCAGUUACUAUAUUAGGGUGCCUUGGCUAGUGAUGUUAGAGAGUAACCCUUGGCAGCUUUGGUACUUAU [theeternabot_exclusion_KL_Theo_B_21]”, the “apparent KD of K4 kissing-loop reporter” value is reported as 335 nM.
With “CGGUAGUCUAUAGGGUCCAGUGAUGUUGGACAGGAUAUGCUACGCCGCAGAAGGGUCCAACUGGUUGUGAAGUUGGCUACUAGGC [Somaaxe]” the “apparent KD of K4 kissing-loop reporter” value was 189 nM.
For “AGGUUUUGAUUAGGAUAUGCACUGAGGAGGAGAAUAUAGUGAUGUUAUAUAAGAGGAAGGAGAAGAGUAGAAGGGAUUGAGGUUU [SSFMNB.Q]”, the “apparent KD of K4 kissing-loop reporter” value was 190 nM.
For “AAUAACUAGUAUAUUUGUAAUAAAACAGAUACCAGUGAUAAUAAACACCCUUGGCAGCUGAUCGAGUGAUGUUCGUUUAUUUUAA [JR_SSTheophyA_Sub004]”, the “apparent KD of K4 kissing-loop reporter” value was 78.5 nM.
With “GCUACUGCCUUAGGAUAUAGUUGAGUGAUGUUCAAGCAUAUGCAUGGGAAAACCAUGCAUAUGUCCCUAGAAGGGAGGCAGUAGC” the “apparent KD of K4 kissing-loop reporter” value was 740 nM.
For “GCGCGGCUCAGUGAUGUUGAGCCUCGGAAACGAGGACCGGUACGGCCGCCACUCGUCCGCGCAGCUGAGGCAAAAGCCUCGGCAA [Omei KL Tryp A SS B v1]”, the “apparent KD of K4 kissing-loop reporter” value was 261 nM.
With “GAUACGUCAGUGAUGUUGAUGUAUUACACAGAGGAUAUCGUAAUGACGAGAAGGCUGAGCCAUCUAGAGAUACGUAAGACGUAUC [FMN A SS t5]” the “apparent KD of K4 kissing-loop reporter” value was 205 nM.
“UUCAGUGACAUACGAGUGAUGUUCGUAAUACGAGGACCGGUACGGCCGCCACUCGCACGUCGGCAGUUUGUUCAUGCAUCAGACU” was tested, and the “apparent KD of K4 kissing-loop reporter” value was 514 nM.
In the case of “UUAUACAACUGAAGGAGCGCCAGUGAUGUUGGCGUGACGACUGCUUCCUUCGCCGAGUCCUGGCAGGUAGGUCGCAGUUGCUGAA [Oratgere]”, the “apparent KD of K4 kissing-loop reporter” value is reported as 94.8 nM.
“AAGGUAUCACCAACUUGCAACAAAGGUGAUACCAGCAUCGAAAGAUGCCCUUGGCAGCACCAACUUGCAGUGAUGUUGCAAGUAA [(T)'-(H)'-(T1)-(T2)-(H1)-(H2)_Design10]” was tested, and the “apparent KD of K4 kissing-loop reporter” value was 170 nM.
For “AAGGCAGUUCGAGGAUAUCACAUACACUCCUUGAAUCAAGGAGUGAUGUUCCUUGAAGUGUAUGCAUGAGAAGGCGAAUUGCCUU [FMN B SS t5]”, the “apparent KD of K4 kissing-loop reporter” value was 101 nM.
With “GGGUUUGCCGGAAGGAGCGCACUAUGGAGUGAUGUUCCAUGACCGCACAGCUUGCGGUCAGUGCAGGUAGGUCGCCGGUAACGUU [Enatbeve]” the “apparent KD of K4 kissing-loop reporter” value was 194 nM.
“UAUACUAGACAAGAGAGAAUUCUCUCAAGAGAGGAUAUCCGAAUUCGGAGAAGGCUCUCUCAGUGAUGUUGGGUAUAGUCUAGAA [AK7 SS FMN A]” was tested, and the “apparent KD of K4 kissing-loop reporter” value was 299 nM.
For “AAACAUUGGUCUGAUACCAGUUAGACCGAUAAGGUCAAAACUGGAGUGAUGUUCCCAAAUAACCCUUGGCAGCAGACCGAUGAAA [MAT - Same State Theophlline B - Mod of Eli - D10]”, the “apparent KD of K4 kissing-loop reporter” value was 231 nM.
“UGGACCAAGGAGUGAUGUUCCAUAUGUGAUACCAGCCACGAAAGUGGCCCUUGGCAGCACUGCCAGGACGAAAACGUCCGGUCCU [#SwitchBubble 13 #StaticStem #K4Early]” was tested, and the “apparent KD of K4 kissing-loop reporter” value was 321 nM.
For “GUCCCAGUGAUGUUGGUAGGCGAGCGGGAUACCAGCGAAGACUCACGCCCUUGGCAGCCCACAUAUCCCACGUAGGGAUUAGCUC [Same State - Theophylline A (Freestyle 20)]”, the “apparent KD of K4 kissing-loop reporter” value was 351 nM.
“UGACUGGACUGAAGGAGCGAGCGAGACAAAGUCUCGGAAAUUCAGUGAUGUUGAUAUAUAACUCAGGUAGGUCGCAGUCUAGUCU [ArgBS 6 #SwitchBubble #StaticStem]” was tested, and the “apparent KD of K4 kissing-loop reporter” value was 335 nM.
With “UAGCGGUGGAGGCCACCGCUAUUCUGAGAAGGAGCGCAGAUGACUGCAGGUAGGUCGCUUAGAGCUUGCAGUGAUGUUGCAAGUU [Araatlaqu]” the “apparent KD of K4 kissing-loop reporter” value was 177 nM.
In the case of “GCAUGACGGUAAGGAUAUAGAUAAUCCUUAUAUACGUCGAGUGAUGUUCGAUGUGCCAAGGCACAUCUAGAAGGUACUGUUAGGU [Same State FMN B GF 18]”, the “apparent KD of K4 kissing-loop reporter” value is reported as 873 nM.
“ACGUAUAUCAGAGGAUAUCGUAUUAAUAUUUUAUCUAUCUAUAUAUGCAGUGAUGUUGCAAUAAUUCGAGAAGGCUGAUUUACGA [JR_ExcFMNB_Sub010]” was tested, and the “apparent KD of K4 kissing-loop reporter” value was 87.3 nM.
With “UCUGCAAAGUCGGCCGCCACUCCGGGCCCUAUAAAUGGGCGCAGUGAUGUUGCGGCUAGGCCUCUGAGGACCGGGACUUCGUAGA [Somale]” the “apparent KD of K4 kissing-loop reporter” value was 107 nM.
With “UGACUACAUCCUAGUGAUGUUUAGGAUAUGUAGGAUAUGCUGAUAAGCAGAAGGACAGAAGGAAGUGAUGUUCUUAAAGUAGUCU [FmnAX 29 #DoubleAptamer #Double K4 #SwitchBubble #StaticStem]” the “apparent KD of K4 kissing-loop reporter” value was 802 nM.
